Measurements reported in the supplement of paper PMC7125110.
± gives the standard error. For some of these results: This sample holds only a part of the variants without activity.

B1: glmS ribozyme (parent)
chain: AUAAAAGCGCCAGAACUACAGAAAUGUAGUUGACGAGGAGGAGGUUUAUCGAAUUUUCGGCGGAUGCCUCCAAA

Columns and labels:
Conditions in all cases: with glucosamine-6-phosphate
[1] = variants of: B1; experiment: kcat; higher = faster cleavage; RNA array
How it was run: (§1)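 Barcoded ribozyme variants on sequenced MiSeq chips were transcribed in situ by E. coli RNA polymerase and followed at 37 °C through a hybridised Cy3 probe. Glucosamine-6-phosphate at 40 μM to 10 mM in HEPES/KCl/Mg(OAc)2 buffer was flowed in, and tiles were imaged over ~14 h. Signals were normalised to baseline and to non-cleaving reference variants, and per-tile medians were fit to one- or two-exponential decays to give kobs. Weighted Michaelis–Menten fits across concentrations gave kcat and KM.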

[2] = variants of: B1; experiment: KM; higher = weaker cofactor use; RNA array
How it was run: as §1

[3] = variants of: B1; experiment: self-cleavage kobs at 160 uM GlcN6P; higher = faster cleavage; RNA array
How it was run: as §1

[4] = variants of: B1; experiment: self-cleavage kobs at 640 uM GlcN6P; higher = faster cleavage; RNA array
How it was run: as §1

[5] = variants of: B1; experiment: self-cleavage kobs at 2500 uM GlcN6P; higher = faster cleavage; RNA array
How it was run: as §1

[6] = variants of: B1; experiment: self-cleavage kobs at 10000 uM GlcN6P; higher = faster cleavage; RNA array
How it was run: as §1

[7] = variants of: B1; experiment: self-cleavage kobs at 40 uM GlcN6P; higher = faster cleavage; RNA array
How it was run: as §1

| Variant | kcat [1] | KM [2] | self-cleavage kobs at 160 uM GlcN6P [3] | self-cleavage kobs at 640 uM GlcN6P [4] | self-cleavage kobs at 2500 uM GlcN6P [5] | self-cleavage kobs at 10000 uM GlcN6P [6] | self-cleavage kobs at 40 uM GlcN6P [7] |
| --- | --- | --- | --- | --- | --- | --- | --- |
| U30G A52G | 0.000498 ± 6.7e-05 s⁻¹ | 2430 ± 620 µM | 4.03e-05 ± 2e-05 s⁻¹ | 9.63e-05 ± 1.4e-05 s⁻¹ | 0.00033 ± 5.9e-05 s⁻¹ | 0.000388 ± 4.4e-05 s⁻¹ |  |
| U57A C68G | 3.34e-05 ± 1.3e-05 s⁻¹ |  |  | 6.21e-05 ± 1.7e-05 s⁻¹ | 4.55e-05 ± 1.7e-05 s⁻¹ |  |  |
| G29U G32C | 0.000123 ± 3.9e-06 s⁻¹ | 2730 ± 250 µM |  |  | 5.78e-05 ± 8.5e-06 s⁻¹ | 9.71e-05 ± 8.4e-06 s⁻¹ | < 1e-05 s⁻¹ |
| U31A A48G | 2.21e-05 ± 4.8e-06 s⁻¹ |  |  |  | 3.3e-05 ± 1.1e-05 s⁻¹ | 1.74e-05 ± 7.5e-06 s⁻¹ |  |
| U55G A64U | 0.000152 ± 1.9e-05 s⁻¹ | 3480 ± 950 µM |  |  | 6.75e-05 ± 8.7e-06 s⁻¹ | 0.00011 ± 1.4e-05 s⁻¹ |  |
| A12G U45A | 0.00242 ± 0.00064 s⁻¹ | 3500 ± 1300 µM | 0.000103 ± 1.6e-05 s⁻¹ | 0.00041 ± 5.3e-05 s⁻¹ | 0.000811 ± 0.00014 s⁻¹ | 0.00207 ± 0.00031 s⁻¹ | 4.21e-05 ± 1.5e-05 s⁻¹ |
| U54G C71G | 0.00104 ± 0.00019 s⁻¹ | 511 ± 150 µM | 0.000192 ± 4.6e-05 s⁻¹ | 0.000398 ± 9e-05 s⁻¹ | 0.000909 ± 0.0002 s⁻¹ | 0.0011 ± 0.00012 s⁻¹ | 8.73e-05 ± 8.8e-06 s⁻¹ |
| A39U U57G | 2.55e-05 ± 5.3e-06 s⁻¹ |  |  |  | 3.12e-05 ± 1.3e-05 s⁻¹ | 2.2e-05 ± 9.3e-06 s⁻¹ |  |
| A15C C71G | 0.000307 ± 5.8e-05 s⁻¹ | 1010 ± 390 µM | 4.96e-05 ± 1.3e-05 s⁻¹ | 0.00011 ± 1.2e-05 s⁻¹ | 0.000299 ± 3.9e-05 s⁻¹ | 0.00025 ± 3.6e-05 s⁻¹ |  |
| A42G U69C | 0.0183 ± 0.0052 s⁻¹ | 599 ± 250 µM | 0.00336 ± 0.0014 s⁻¹ | 0.0132 ± 0.0044 s⁻¹ | 0.0132 ± 0.0041 s⁻¹ |  | 0.00116 ± 0.00032 s⁻¹ |
| G13U C68A | 1.31e-05 ± 2e-06 s⁻¹ |  |  |  |  |  |  |
| U46G C67U | 0.00338 ± 0.0012 s⁻¹ | 1200 ± 590 µM | 0.000317 ± 5.3e-05 s⁻¹ | 0.00143 ± 0.00015 s⁻¹ | 0.00176 ± 0.00028 s⁻¹ | 0.00457 ± 0.00079 s⁻¹ | 0.000125 ± 1.7e-05 s⁻¹ |
| U65A C67G C71G | 2.24e-05 ± 6.2e-06 s⁻¹ |  |  |  |  |  |  |
| G41C A52U | 1.27e-05 ± 7.6e-07 s⁻¹ |  | < 1e-05 s⁻¹ |  |  |  | < 1e-05 s⁻¹ |
| G13U A64C | 1.02e-05 ± 3e-06 s⁻¹ |  |  |  |  |  |  |
| G29A A53U | 0.00212 ± 0.00065 s⁻¹ |  | 0.000233 ± 5.5e-05 s⁻¹ | 0.000595 ± 9.3e-05 s⁻¹ | 0.00129 ± 0.00019 s⁻¹ | 0.00276 ± 0.00055 s⁻¹ | 9.5e-05 ± 1.9e-05 s⁻¹ |
| G51A C67U | < 1e-05 s⁻¹ |  |  |  |  |  | < 1e-05 s⁻¹ |
| A6U G66U | < 1e-05 s⁻¹ | 1280 ± 630 µM |  |  |  |  |  |
